Laboratory results: patent US20130022541A1

How the values were obtained:
[1] = molecular target: HLA-DR; test: flow cytometry, surface, LS174T cells + IFN-γ
[2] = molecular target: HLA-DR; test: flow cytometry, surface, HT29 cells + IFN-γ
[3] = molecular target: HLA-DR; test: flow cytometry, surface, Aspc-1 cells + IFN-γ
[4] = molecular target: HLA-DR; test: flow cytometry, permeabilized (cytoplasmic), LS174T cells
[5] = molecular target: HLA-DR; test: flow cytometry, permeabilized (cytoplasmic), KMS11 cells + IFN-γ
[6] = molecular target: HLA-DR; test: flow cytometry, surface, RL cells + IFN-γ
[7] = molecular target: HLA-DR; test: flow cytometry, surface, KMS11 cells
[8] = molecular target: HLA-DR; test: flow cytometry, permeabilized (cytoplasmic), LS174T cells + IFN-γ
[9] = molecular target: HLA-DR; test: flow cytometry, permeabilized (cytoplasmic), U87 cells
[10] = molecular target: HLA-DR; test: flow cytometry, surface, KMS11 cells + IFN-γ
[11] = molecular target: HLA-DR; test: flow cytometry, surface, CAG cells
[12] = molecular target: HLA-DR; test: flow cytometry, surface, Moser cells + IFN-γ
[13] = molecular target: HLA-DR; test: flow cytometry, permeabilized (cytoplasmic), RL cells
[14] = molecular target: HLA-DR; test: flow cytometry, permeabilized (cytoplasmic), BxPC-3 cells + IFN-γ
[15] = molecular target: HLA-DR; test: flow cytometry, surface, Capan-1 cells
[16] = molecular target: HLA-DR; test: flow cytometry, permeabilized (cytoplasmic), TU118 cells
[17] = molecular target: HLA-DR; test: flow cytometry, permeabilized (cytoplasmic), CAG cells + IFN-γ
[18] = molecular target: HLA-DR; test: flow cytometry, surface, Lovo cells
[19] = molecular target: HLA-DR; test: flow cytometry, permeabilized (cytoplasmic), FSCCL cells + IFN-γ
[20] = molecular target: HLA-DR; test: flow cytometry, surface, HT29 cells
[21] = molecular target: HLA-DR; test: flow cytometry, permeabilized (cytoplasmic), TU118 cells + IFN-γ
[22] = molecular target: HLA-DR; test: flow cytometry, permeabilized (cytoplasmic), Lovo cells
[23] = molecular target: HLA-DR; test: flow cytometry, permeabilized (cytoplasmic), Lovo cells + IFN-γ
[24] = molecular target: HLA-DR; test: flow cytometry, permeabilized (cytoplasmic), Capan-1 cells
[25] = molecular target: HLA-DR; test: flow cytometry, permeabilized (cytoplasmic), FSCCL cells
[26] = molecular target: HLA-DR; test: flow cytometry, permeabilized (cytoplasmic), RL cells + IFN-γ
[27] = molecular target: HLA-DR; test: flow cytometry, surface, LS174T cells
[28] = molecular target: HLA-DR; test: flow cytometry, permeabilized (cytoplasmic), CAG cells
[29] = molecular target: HLA-DR; test: flow cytometry, permeabilized (cytoplasmic), Panc-1 cells
[30] = molecular target: HLA-DR; test: flow cytometry, permeabilized (cytoplasmic), Aspc-1 cells + IFN-γ
[31] = molecular target: HLA-DR; test: flow cytometry, permeabilized (cytoplasmic), Capan cells + IFN-γ
[32] = molecular target: HLA-DR; test: flow cytometry, surface, TU118 cells
[33] = molecular target: HLA-DR; test: flow cytometry, permeabilized (cytoplasmic), Moser cells
[34] = molecular target: HLA-DR; test: flow cytometry, surface, Panc-1 cells
[35] = molecular target: HLA-DR; test: flow cytometry, surface, FSCCL cells
[36] = molecular target: HLA-DR; test: flow cytometry, surface, Lovo cells + IFN-γ
[37] = molecular target: HLA-DR; test: flow cytometry, permeabilized (cytoplasmic), Panc-1 cells + IFN-γ
[38] = molecular target: HLA-DR; test: flow cytometry, surface, Capan cells + IFN-γ
[39] = molecular target: HLA-DR; test: flow cytometry, surface, BxPC-3 cells + IFN-γ
[40] = molecular target: HLA-DR; test: flow cytometry, surface, Moser cells
[41] = molecular target: HLA-DR; test: flow cytometry, permeabilized (cytoplasmic), U87 cells + IFN-γ
[42] = molecular target: HLA-DR; test: flow cytometry, permeabilized (cytoplasmic), KMS11 cells
[43] = molecular target: HLA-DR; test: flow cytometry, permeabilized (cytoplasmic), U118 cells
[44] = molecular target: HLA-DR; test: flow cytometry, surface, TU118 cells + IFN-γ
[45] = molecular target: HLA-DR; test: flow cytometry, surface, U118 cells + IFN-γ
[46] = molecular target: HLA-DR; test: flow cytometry, surface, BxPC-3 cells
[47] = molecular target: HLA-DR; test: flow cytometry, surface, U87 cells + IFN-γ
[48] = molecular target: HLA-DR; test: flow cytometry, surface, Panc-1 cells + IFN-γ
[49] = molecular target: HLA-DR; test: flow cytometry, permeabilized (cytoplasmic), HT29 cells
[50] = molecular target: HLA-DR; test: flow cytometry, permeabilized (cytoplasmic), Moser cells + IFN-γ
[51] = molecular target: HLA-DR; test: flow cytometry, surface, Aspc-1 cells
[52] = molecular target: HLA-DR; test: flow cytometry, permeabilized (cytoplasmic), Aspc-1 cells
[53] = molecular target: HLA-DR; test: flow cytometry, surface, RL cells
[54] = molecular target: HLA-DR; test: flow cytometry, surface, U118 cells
[55] = molecular target: HLA-DR; test: flow cytometry, permeabilized (cytoplasmic), BxPC-3 cells
[56] = molecular target: HLA-DR; test: flow cytometry, permeabilized (cytoplasmic), U118 cells + IFN-γ
[57] = molecular target: HLA-DR; test: flow cytometry, surface, U87 cells
[58] = molecular target: HLA-DR; test: flow cytometry, permeabilized (cytoplasmic), HT29 cells + IFN-γ
[59] = molecular target: HLA-DR; test: flow cytometry, surface, FSCCL cells + IFN-γ
[60] = molecular target: HLA-DR; test: flow cytometry, surface, CAG cells + IFN-γ

B1: hL243γ4P (anti-HLA-DR) (antibody, from a related filing, V domains shown)
VH: QVQLQQSGSELKKPGASVKVSCKASGFTFTNYGMNWVKQAPGQGLKWMGWINTYTREPTYADDFKGRFAFSLDTSVSTAYLQISSLKADDTAVYFCARDITAVVPTGFDYWGQGSLVTVSS
VL: DIQLTQSPSSLSASVGDRVTITCRASENIYSNLAWYRQKPGKAPKLLVFAASNLADGVPSRFSGSGSGTDYTFTISSLQPEDIATYYCQHFWTTPWAFGGGTKLQIKR
- flow cytometry fluorescence [1]: 4.7
- flow cytometry fluorescence [2]: 298
- flow cytometry fluorescence [3]: 15.2
- flow cytometry fluorescence [4]: 23.4
- flow cytometry fluorescence [5]: 927
- flow cytometry fluorescence [6]: 862
- flow cytometry fluorescence [7]: 677
- flow cytometry fluorescence [8]: 42.3
- flow cytometry fluorescence [9]: 102
- flow cytometry fluorescence [10]: 665
- flow cytometry fluorescence [11]: 1930
- flow cytometry fluorescence [12]: 8.5
- flow cytometry fluorescence [13]: 1060
- flow cytometry fluorescence [14]: 130
- flow cytometry fluorescence [15]: 5.5
- flow cytometry fluorescence [16]: 23.6
- flow cytometry fluorescence [17]: 2420
- flow cytometry fluorescence [18]: 7.3
- flow cytometry fluorescence [19]: 2520
- flow cytometry fluorescence [20]: 3.3
- flow cytometry fluorescence [21]: 215
- flow cytometry fluorescence [22]: 32.5
- flow cytometry fluorescence [23]: 989
- flow cytometry fluorescence [24]: 11.6
- flow cytometry fluorescence [25]: 1470
- flow cytometry fluorescence [26]: 1180
- flow cytometry fluorescence [27]: 5.3
- flow cytometry fluorescence [28]: 2320
- flow cytometry fluorescence [29]: 22.7
- flow cytometry fluorescence [30]: 73.6
- flow cytometry fluorescence [31]: 253
- flow cytometry fluorescence [32]: 5.08
- flow cytometry fluorescence [33]: 18.2
- flow cytometry fluorescence [34]: 4.3
- flow cytometry fluorescence [35]: 1090
- flow cytometry fluorescence [36]: 276
- flow cytometry fluorescence [37]: 64.1
- flow cytometry fluorescence [38]: 66.2
- flow cytometry fluorescence [39]: 43.8
- flow cytometry fluorescence [40]: 4
- flow cytometry fluorescence [41]: 429
- flow cytometry fluorescence [42]: 879
- flow cytometry fluorescence [43]: 24.6
- flow cytometry fluorescence [44]: 93.5
- flow cytometry fluorescence [45]: 197
- flow cytometry fluorescence [46]: 2.3
- flow cytometry fluorescence [47]: 172
- flow cytometry fluorescence [48]: 4.7
- flow cytometry fluorescence [49]: 9.1
- flow cytometry fluorescence [50]: 40.5
- flow cytometry fluorescence [51]: 3.2
- flow cytometry fluorescence [52]: 11
- flow cytometry fluorescence [53]: 750
- flow cytometry fluorescence [54]: 6.1
- flow cytometry fluorescence [55]: 14.2
- flow cytometry fluorescence [56]: 352
- flow cytometry fluorescence [57]: 41.9
- flow cytometry fluorescence [58]: 638
- flow cytometry fluorescence [59]: 1610
- flow cytometry fluorescence [60]: 1810
